The values that follow are results of earlier work, collected in article PMC4067134.

In data set [1] the target is integrin β3 (Homo sapiens) (UniProt P05106).
Data set [2] deals with integrin αIIbβ3 (Homo sapiens) (UniProt P08514).

Chain of UniProt P05106 (P05106 27-718): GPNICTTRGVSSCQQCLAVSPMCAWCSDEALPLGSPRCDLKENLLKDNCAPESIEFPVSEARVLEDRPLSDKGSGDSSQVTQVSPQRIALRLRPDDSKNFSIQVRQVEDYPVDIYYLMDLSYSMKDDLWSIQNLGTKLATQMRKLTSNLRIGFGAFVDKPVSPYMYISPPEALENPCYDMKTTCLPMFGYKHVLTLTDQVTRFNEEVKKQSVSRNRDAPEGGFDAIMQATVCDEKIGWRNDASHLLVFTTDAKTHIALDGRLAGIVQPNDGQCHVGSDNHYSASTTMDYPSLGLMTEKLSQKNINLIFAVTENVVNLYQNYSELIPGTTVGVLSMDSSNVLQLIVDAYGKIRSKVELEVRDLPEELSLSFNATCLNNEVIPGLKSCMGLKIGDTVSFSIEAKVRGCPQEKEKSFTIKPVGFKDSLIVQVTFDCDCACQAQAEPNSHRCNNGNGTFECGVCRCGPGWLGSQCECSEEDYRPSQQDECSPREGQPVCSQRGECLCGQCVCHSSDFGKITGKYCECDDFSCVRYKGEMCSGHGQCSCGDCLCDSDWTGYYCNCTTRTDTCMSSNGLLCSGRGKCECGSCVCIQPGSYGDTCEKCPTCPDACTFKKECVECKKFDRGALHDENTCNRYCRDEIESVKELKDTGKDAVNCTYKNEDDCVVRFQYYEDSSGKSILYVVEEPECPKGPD

Turning to ERp5 (from UniProt Q15084), the dissociation constant (Kd) in data set [1] is 6.9 µM; in data set [2] it was 7 µM.
